Results as given in patent publication US20240400717A1, “Antibody Binding to CHI3L1 for Treating Cancer” (National Cheng Kung University, priority 2021, published 2024).

T1: CHI3L2 (Homo sapiens, UniProt Q15782)
T1 sequence (Q15782 27-390): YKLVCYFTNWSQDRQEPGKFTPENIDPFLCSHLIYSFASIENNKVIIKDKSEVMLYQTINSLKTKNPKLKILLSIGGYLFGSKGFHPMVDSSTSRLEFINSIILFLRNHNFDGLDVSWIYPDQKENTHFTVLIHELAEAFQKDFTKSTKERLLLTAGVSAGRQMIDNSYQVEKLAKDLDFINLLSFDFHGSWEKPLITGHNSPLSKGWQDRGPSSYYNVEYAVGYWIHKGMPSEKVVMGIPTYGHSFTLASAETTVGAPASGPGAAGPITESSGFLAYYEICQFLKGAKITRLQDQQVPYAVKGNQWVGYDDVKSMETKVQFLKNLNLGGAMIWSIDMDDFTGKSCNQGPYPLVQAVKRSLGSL


How the values were obtained:
MiaPaCa cells = assay: MiaPaCa orthotopic NOD-SCID mice model; conditions: for fibrosis indicated by α-SMA: comparing to IgG control and gemcitabine groups; for level of CHI3L1 in intratumoral region and plasma: end of experiment; for infiltrated macrophages in tumor sections (F4/80+, CD206+): immunofluorescence; for angiogenesis indicated by CD31 expression / tumor size: mAb 5 mg/kg i.v., gemcitabine 50 mg/kg i.p.; for tumor size: Day 7, 14, 21, 28, sacrificed day 34
Description: Specifically, experimental design of tumor growth inhibition in vivo. MiaPaCa cells (5×10^6) were injected into pancreas of NOD-SCID mice at Day 0. […] Mice were sacrificed on day 34. […] Since fibrosis and angiogenesis are two major issues during tumor progression, we compared the fibrosis and angiogenesis level within each groups.

HCT116 and A549 cells = assay: Immunoblot of rCHI3L1-induced AKT and ERK phosphorylation, HCT116 and A549; format: cell-based, human; conditions: HCT116 and A549, time course
Description: The involvement of CHI3L1 in intracellular signaling pathways has been reported. For example, CHI3L1 binding to CD44 activates protein kinase B (AKT) and extracellular signal-regulated kinase (ERK) signaling to promote cancer progression (Chen, Jiang et al. 2021). Thus, we tested whether mAb clones R4-4, R4-54, 293R3-2, and 293R3-4 could attenuate AKT and ERK phosphorylation in human pancreatic (PANC1), colorectal (HCT116), and lung (A549) cancer cell lines. PANC1 cells were treated with rCHI3L1 (100 ng/ml) only or rCHI3L1 with different dose of mAbs as indicated for 20 minutes.

[1] = system: MiaPaCa-2, SW480 and A549 cells; assay: Wound healing assay with rCHI3L1; format: cell-based, human; conditions: MiaPaCa-2, SW480, A549; 16 hours
Description: Since AKT regulates cell migration, we further performed wound healing assay to examine the anti-migratory effect of mAbs on pancreatic (MiaPaCa-2), colorectal (SW480), and lung (A549) cells. We observed that after 16 hours, the wound closure area was increased compared to that in control groups upon rCHI3L1 treatment. […] Taken together, our fully human monoclonal CHI3L1 neutralizing antibody clones R4-4, R4-54, 293R3-2, and 293R3-4 blocked the CHI3L1 induced signaling and cell behaviors of tumor cells. The data was presented as mean±S.D. (n=3 per group). P values were determined by one-way ANOVA. * P<0.05, ** P<0.01, *** P<0.001, **** P<0.0001.

CHI3L2 = target: T1, CHI3L2; assay: ELISA binding specificity, CHI3L2; conditions: mAbs 1 μg/ml; coated protein 2.5 μg/ml to 0 μg/ml
Description: Four selected clones of mAbs including R4-4, R4-54, 293R3-2, and 293R3-4 were further tested for blocking effect on human colorectal (HCT116, SW480, and SW620) and pancreatic cancer cell lines (PANC1 and MiaPaCa-2). […] P values were determined by one-way ANOVA. * P<0.05, ** P<0.01, *** P<0.001, **** P<0.0001. For binding specificity examination, we further coated different concentration of recombinant CHI3L1 protein, and two other major proteins in chitinase family including human chitotriosidase-1 (CHIT1) and CHI3L2 from 2.5 μg/ml to 0 μg/ml, on 96-well plate.

[2] = target: T2, CHI3L1 binding to IL-13Rα2 on A549 cell line (Homo sapiens, UniProt P36222); assay: Functional screen: block of CHI3L1 binding to IL-13Rα2 on A549 cell line; format: cell-based; conditions: A549 cells, compared with CHI3L1 only
T2 construct: host or cells: A549 cells carry the receptor
Source text: CHI3L1 is known to associate with different receptors, such as IL-13Rα2 (He et al. 2013), CRTH2 (Zhou et al. 2015), TMEM219 (Lee et al. 2016), and galectin-3 (Zhou et al. 2015). […] Therefore, purified antibody leads were functionally screened for their ability to block CHI3L1 binding to IL-13Rα2 on A549 cell line (FIG. 3A). […] The sequences and defied CDR regions among those monoclonal antibodies are listed and summarized in the sequences list (SEQ ID NOs: 1 to 88) and Table 2, respectively. Anti-CHI3L1 clone R4-2 heavy chain (SEQ ID NO: 1), anti-CHI3L1 clone R4-2 light chain (SEQ ID NO: 2), anti-CHI3L1 clone R4-4 heavy chain (SEQ ID NO: 9), anti-CHI3L1 clone R4-4 light chain (SEQ ID NO: 10), anti-CHI3L1 clone R4-39 heavy chain (SEQ ID NO: 17), anti-CHI3L1 clone R4-39 light chain (SEQ ID NO: 18), anti-CHI3L1 clone R4-53 heavy chain (SEQ ID NO: 25), anti-CHI3L1 clone R4-53 light chain (SEQ ID NO: 26), anti-CHI3L1 clone R4-54 heavy chain (SEQ ID NO: 33), anti-CHI3L1 clone R4-54 light chain (SEQ ID NO: 34), anti-CHI3L1 clone R4-62 heavy chain (SEQ ID NO: 41), anti-CHI3L1 clone R4-62 light chain (SEQ ID NO: 42), anti-CHI3L1 clone R4-63 heavy chain (SEQ ID NO: 49), anti-CHI3L1 clone R4-63 light chain (SEQ ID NO: 50), anti-CHI3L1 clone R4-93 heavy chain (SEQ ID NO: 57), anti-CHI3L1 clone R4-93 light chain (SEQ ID NO: 58), anti-CHI3L1 clone 293R3-2 heavy chain (SEQ ID NO: 65), anti-CHI3L1 clone 293R3-2 light chain (SEQ ID NO: 66), anti-CHI3L1 clone 293R3-4 heavy chain (SEQ ID NO: 73), anti-CHI3L1 clone 293R3-4 light chain (SEQ ID NO: 74), anti-CHI3L1 clone 293R3-5 heavy chain (SEQ ID NO: 81), and anti-CHI3L1 clone 293R3-5 light chain (SEQ ID NO: 82) are shown in sequence listing.

T2 sequence (P36222 22-383): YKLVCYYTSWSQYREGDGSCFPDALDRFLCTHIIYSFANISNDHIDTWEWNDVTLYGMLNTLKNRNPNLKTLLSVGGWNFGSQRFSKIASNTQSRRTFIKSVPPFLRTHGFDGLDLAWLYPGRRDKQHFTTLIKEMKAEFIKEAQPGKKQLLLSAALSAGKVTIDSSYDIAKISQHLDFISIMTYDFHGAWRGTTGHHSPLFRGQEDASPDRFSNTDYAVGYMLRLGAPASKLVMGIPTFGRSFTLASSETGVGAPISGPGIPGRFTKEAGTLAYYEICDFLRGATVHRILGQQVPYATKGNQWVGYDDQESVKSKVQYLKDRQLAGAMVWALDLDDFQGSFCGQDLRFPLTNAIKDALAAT

Molecule | fibrosis indicated by α-SMA (MiaPaCa cells) | level of CHI3L1 in intratumoral region and plasma (MiaPaCa cells) | infiltrated macrophages in tumor sections (F4/80+, CD206+) (MiaPaCa cells; 5 mg/kg i.v.) | angiogenesis indicated by CD31 expression (MiaPaCa cells) | tumor size (MiaPaCa cells) | p-AKT and p-ERK levels induced by rCHI3L1 (HCT116 and A549 cells) | cell migration ability induced by rCHI3L1 (wound closure area) [1] | binding specificity: recognition of CHI3L2 (CHI3L2) | CHI3L1 neutralizing activity [2] | spleen metastasis tumor nodules (MiaPaCa cells; 5 mg/kg i.v.)
R4-54: fully human anti-CHI3L1 IgG1 mAb, Table 1 No. 34; heavy chain SEQ ID NO: 33, light chain SEQ ID NO: 34 (antibody, listed as Homo sapiens) VH: QVQLVESGGGVVQPGRSLRLSCAASGFTFSSYGMHWVRQAPGKGLEWVAVISYDGSDKDYADSVKGRFTISRDNSKNTLFLQMNSLRAEDTAVYYCARDDYDSTYYFDNWGQGTTVTVSS light: SYELTQPPSVSVSPGQTASITCSGDILADQYASWYQQKPGQSPVLVIYHDTKRPSGVPERFSGSTSGNTATLTISGTQAMDEAAYYCQAWDINTAWVFGGGTQLTVLGQPKAAPSVTLFPPSSEELQANKATLVCLISDFYPGAVTVAWKADSSPVKAGVETTTPSKQSNNKYAASSYLSLTPEQWKSHRSYSCQVTHEGSTVEKTVAPTECS | obviously decrease | lower than IgG control group | more macrophages other than M2 phenotype | decreased in every treatment groups | smaller than IgG control group | Inhibition of p-AKT and p-ERK | significantly reduced cell migration ability | no other chitinase proteins | best neutralizing activity | 
293R3-4: fully human anti-CHI3L1 IgG1 mAb, Table 1 No. 4; heavy chain SEQ ID NO: 73, light chain SEQ ID NO: 74 (antibody, listed as Homo sapiens) VH: EVQLVQSGAEVKKPGATVKISCKVSGYSFTDYYIHWVQQAPGKGLEWMGFVDPENGETIYAEKFQGRVTITADTSTDTAYMELSSLRSDDTAVYYCATDRDYDDSSGNAFDIWGQGTMVTVSS light: SYELTQPPSVSVSTGQTATITCSGDILGDEYAFWYQQKAGQSPVLVIYLDTRRPSGIPERFSGSNSGDTATLTISETQPVDEAVYFCQGWDSSTALYVFGTGTKVTVLGQPKANPTVTLFPPSSEELQANKATLVCLISDFYPGAVTVAWKADGSPVKAGVETTKPSKQSNNKYAASSYLSLTPEQWKSHRSYSCQVTHEGSTVEKTVAPTECS |  | lower than IgG control group | more macrophages other than M2 phenotype | decreased in every treatment groups | smaller than IgG control group | Inhibition of p-AKT and p-ERK | significantly reduced cell migration ability | no other chitinase proteins | best neutralizing activity | 
R4-4: fully human anti-CHI3L1 IgG1 mAb, Table 1 No. 9; heavy chain SEQ ID NO: 9, light chain SEQ ID NO: 10 (antibody, listed as Homo sapiens) VH: EVQLLESGGGLLQPGGSLRLSCAASGLTFRNYAMTWVRQAPGKGLEWVSTISGNGDETFYADSVKGHFTISRDNSKDTVYLQMNSLRAEDTAVYYCAKGGHYSFFDSWGQGSPVTVSS light: NFMLTQPHSVSESPGKTVTISCTRSSGSIASNYVQWYQQRPGSSPTTVIYEDNQRPSGVPDRFSGSIDSSSNSASLTISGLKTEDEADYYCQSYDSSNYVFGTGTKVTVLGQPKANPTVTLFPPSSEELQANKATLVCLISDFYPGAVTVAWKADGSPVKAGVETTKPSKQSNNKYAASSYLSLTPEQWKSHRSYSCQVTHEGSTVEKTVAPAECS | obviously decrease | lower than IgG control group | more macrophages other than M2 phenotype | decreased in every treatment groups | smaller than IgG control group | Inhibition of p-AKT and p-ERK | significantly reduced cell migration ability | no other chitinase proteins |  | tumor nodules were obviously smaller
293R3-2: fully human anti-CHI3L1 IgG1 mAb, Table 1 No. 2; heavy chain SEQ ID NO: 65, light chain SEQ ID NO: 66 (antibody, listed as Homo sapiens) VH: QVQLQESGPGLVEPSGTLSLTCAVSGGSISSSNWWSWVRQHPGKGLEWIGEIYHSGSTNYNPSLRSRVTISVDKSKNQFSLELSSVTAADTAVYYCAGDQRMEDDAFDIWGQGTMVTVSS light: QSALTQPASVSGSPGQSITISCTGTSSDVGGYNYVSWYQQHPGKAPKLMIYDVSNRPSGVSNRFSGSKSGNTASLTISGLQAEDEADYYCSSYTSSSTLYVFGTGTKVTVLGQPKANPTVTLFPPSSEELQANKATLVCLISDFYPGAVTVAWKADGSPVKAGVETTKPSKQSNNKYAASSYLSLTPEQWKSHRSYSCQVTHEGSTVEKTVAPTECS |  | lower than IgG control group | more macrophages other than M2 phenotype | decreased in every treatment groups | smaller than IgG control group | Inhibition of p-AKT and p-ERK | significantly reduced cell migration ability | no other chitinase proteins | best neutralizing activity | 
